The target in this assay is recombinant human PD-L1 (rhPD-L1) ectodomain (human) (UniProt Q9NZQ7). In words: SPR.
Chain of UniProt Q9NZQ7 (Q9NZQ7 19-238): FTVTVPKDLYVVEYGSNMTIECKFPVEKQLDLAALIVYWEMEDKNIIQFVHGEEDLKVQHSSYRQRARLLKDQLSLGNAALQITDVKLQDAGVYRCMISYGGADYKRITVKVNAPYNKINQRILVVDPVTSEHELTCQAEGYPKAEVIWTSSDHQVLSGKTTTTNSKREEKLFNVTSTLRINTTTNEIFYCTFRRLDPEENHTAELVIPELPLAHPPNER
Regarding “MVF-PD-1 (32–50) (from UniProt P69353 288-302) (peptide)”, the response (RU) worked out at 11 RU.

In the case of “MVF-PD-1 (45–64) (from UniProt P69353 288-302) (peptide)”, the response (RU) was 110 RU.

On to “MVF-PD-1 (73–90) (from UniProt P69353 288-302) (peptide)”, for which the response (RU) was 110 RU.

On to “MVF-PD-1 (92–110) (from UniProt P69353 288-302) (peptide)”, for which the response (RU) was 110 RU.

Values taken from paper PMC7553530.
